For one test, the system named is colitis induced by DSS. Description: acute inflammatory colitis model induced by DSS. The format is in vivo, mice. The protocol:
FIG. 2. Effect of an anti-CMKLR1 antibody on a mice acute inflammatory colitis model induced by DSS. Mice were injected after 6 days of DSS induction with isotype control hIgG1 (10 μg per mouse) (x), RvE1 (1 μg per mouse) daily (●), or 2G1 antibody (10 μg per mouse) three times (□) for 5 days. Wild type mice, not treated, are represented by an ▾. A. Animal weight loss. B. Animal stool score C. Colon length. D. Resolution index.
Colitis was induced in 8-10 weeks-old-C57Bl/6 male mice by adding 2% (wt/vol) of DSS to the sterile drinking ad libitum water for 6 days. Treatments were injected intra-peritoneally: Isotype control hIgG1 (10 μg per mouse), RvE1 (1 μg per mouse) daily, or 2G1 antibody (10 μg per mouse) three times for 5 days. Colitis follow-up consisting of body weight and stool score (0: normal stool; 4: blood in stool) parameters were performed daily. When mice were euthanized, colon length representing the pathology severity was measured. Resolution index was determined in the different conditions as described in Bannenberg et al., 2005.

Test [1] relates to peritonitis induced by Zymosan A. Description: peritonitis model (Zymosan A). The note with it: vs isotype control. The class given is in vivo, mice. On the procedure: FIG. 7. Effect of an anti-CMKLR1 antibody on a mice peritonitis model. Preventive injection of anti-CMKLR1 was performed before Zymosan A injection (1 mg per mouse in 1 mL): RvE1 (1 μg per mouse) (●), 2G1 antibody (10 μg per mouse) (□) or isotype control antibody (x). A. PMN numbered during the first 50 hours after Zymosan A injection. B. Macrophages numbered during the first 50 hours after Zymosan A injection. C. Resolution index.
Common peritonitis is induced by intraperitoneal injection of Zymosan A® (1 mg per mouse in 1 mL). Preventive injection of anti-CMKLR1 was performed 5 minutes before Zymosan A injection: RvE1 (1 μg per mouse), 2G1 antibody (10 μg per mouse). Murine peritoneal polymorphonuclear neutrophil (PMN) and macrophages were collected at 2-4-8-16-24 and 48 h after Zymosan A injection and numbered by flow cytometry analysis to determinate the resolution index (Bannenberg et al., 2005).

Test [2] addresses T1, CMKLR1 peptide (loop EL3 of CMKLR1, SEQ ID No: 60) (Homo sapiens, UniProt Q99788).
T1 sequence (Q99788 275-307 limits assumed): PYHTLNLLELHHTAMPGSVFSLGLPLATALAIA
Description: ELISA binding on CMKLR1 peptide. Conditions: compared to isotype control; FIG. 12. The protocol: FIG. 12. Binding analysis of the anti-CMKLR1 antibody on a CMKLR1 peptide by ELISA. The binding of the 2G1 antibody (□) on the CMKLR1 EL3 loop (SEQ ID No: 18) was compared to the isotype control antibody (3G8) (x) by measuring the OD at 450 nm by ELISA.
CMKLR1 peptide (273NH2-[…]-COOH305) (SEQ ID No: 60) (5 μg/ml) was coated in borate buffer overnight. Saturation was performed with PBS-Tween 0.1%-Gelatin 0.25% for 2 hours at 37° C. Then, 2G1 or hIgG1 antibodies were added at different concentrations for 2 hours at 37° C. […] The colorimetric reaction was read with TECAN.
Background: In an ELISA, binding on a coated surface is turned into a signal by an enzyme label.

The next test relates to Hepa 1.6 cells. Description: Hepatocarcinoma model (HCC), orthotopic murine hepatoma. The class given is in vivo, mice. Conditions: anti-CMKLR1 0.8 mg/kg three times per week, anti-PD1 8 mg/kg, 2 weeks; followed sixty days; FIG. 20. The protocol: FIG. 20. Effect of an anti-CMKLR1 antibody on a Hepatocarcinoma mice model (HCC model). Anti-tumor effect of anti-CMKLR1 antibody (2G1, 0.8 mg/kg) i.p. administration three times a week for 2 weeks in combination (▴) or not (●) with two injections on day 4 and 8 of anti-PD1 mAb (RMP1-14 clone, 8 mg/kg) or with injections (twice a week) of anti-PD-1 antibody alone (Δ). Mice have been treated during 2 weeks in an orthotropic model of murine hepatoma (2.5.10^6 of Hepa 1.6 cells injected through the portal vein on day 0). Isotype control antibody was used at 0.8 mg/kg three times a week for 2 weeks. Mice response were considered partial (PR) when mice survive few days to 1 month after stop of treatment or complete (CR) when mice survive over 1 month or cured when they survive three times longer than the time necessary to all control mice dye.
Method: Mice were anesthetized with a cocktail of xylazine/ketamine. After a laparotomy, tumoral Hepa 1.6 cells were injected in PBS through the portal vein (2.5·10^6 cells/100 μL) in PBS. The treatment was started 4 days after tumor injection. The anti-CMKLR1 antibody (2G1clone) and the hIgG1 istotype control were injected at 0.8 mg/kg three times per week during 2 weeks. The anti-PD1 monoclonal antibody was injected twice a week during 2 weeks intraperitoneally in PBS (8 mg/kg). […]

The test system of test [3] is PMN from healthy volunteers or ANCA patients. Description: Neutrophils transmigration through endothelial monolayer (HDMEC transwell). The class given is cell-based, human. The protocol: Endothelial cells were coated and +/−activated with 100 U/mL of TNFa overnight. Then PMN were added with or without TNFa at 100 U/mL and Ab for two hours. The transmigrated PMN were collected and analyzed by flow cytometry.
Human endothelial cells (HDMEC) were incubated for 24 h in the transwell coated with gelatin and activated overnight with TNF-alpha at 100 U/mL or without inflammatory conditions. Then, PMN from healthy volunteers or ANCA patients were incubated in transwell containing the monolayer of HDMEC for 4 hours. Antibodies (Iso Ctrl and 2G1) were added at 10 μg/mL+/−TNF-alpha at 100 U/mL during the 4 hours of the transmigration assay. The lower transmigrated part of the transwell was collected and the transmigrated PMN were counted by flow cytometry using counting beads.

B1: 2G1: parental chimeric anti-CMKLR1 antibody: heavy chain variable domain SEQ ID No. 37, light chain variable domain SEQ ID No. 49 (antibody, V domains shown)
VH: EVQLVASGGGLVQPGGSLKLSCAASGFTFSSYGMSWVRQTPDRRLELVATINRYGGSTYYPDSVKGRFTISRDNAKNTLYLQMSSLKSEDTAMYYCPRLIYYGNEGDSWGQGTTLTVSS
VL: QIVLTQSPAIMSASPGEKVTMTCSASSSVSFMHWYQQKSGTSPKRWIYDTTKLTSGVPARFSGSGSGTFYSLTISSMEAEDAATYYCQQWNSKPPLTFGPGTKLELKR
On to B1, for which, in the test with colitis induced by DSS (0: normal stool, 4: blood in stool, FIG. 2B), the stool score result is “significantly better”. Besides, the Animal weight loss entry with colitis induced by DSS (10 μg per mouse i.p. three times for 5 days, vs control antibody or RvE1, FIG. 2A) is “lost significantly less weight”. Moreover, the PMNs number result in test [1] (first 50 hours after Zymosan A, FIG. 7A) is given as “slightly less”. Moreover, the Macrophages number result in test [1] (first 50 hours after Zymosan A, FIG. 7B) was “slightly less”. The resolution index entry in test [1] (FIG. 7C) is “better resolution index”. The “binding on the CMKLR1 EL3 loop peptide (OD at 450 nm)” value in test [2] was “able to bind the polypeptide forming the loop EL3 of CMKLR1”. The “survival rate (treated animals with prolonged survival)” value in the test on Hepa 1.6 cells is on record as 15%. Further, in test [3] (10 μg/mL, compared to control compounds, FIG. 28A), the “transmigration capability of neutrophils” value is “lower transmigration capability”. In test [3] (PMN and endothelial cells activated with TNFa, healthy volunteers and patients, FIG. 28B), the “PMN transmigration through endothelial monolayer under inflammatory condition” value is recorded as “avoids PMN transmigration”.
